Test results taken from the supplement of paper PMC10567573.

B1: IQUB (parent)
chain: KIREKEEWIKLDYHRRHNPKTNED
B2: IQUB (parent)
chain: CRNCINLQNEAQKRESFLKYKCLL

Variants of: B1
Assay: protein stability index of a GFP-peptide fusion (GPS, HEK-293T) (PSI 1-6); higher = more stable
Conditions: c terminus: a fixed tail appended
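Further: lentivirally expressed fusions sorted by FACS into six bins by GFP to DsRed ratio, PSI derived from sequencing read proportions per bin multiplied by bin number.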

Variant	protein stability index
E4S	3.95
D24W	3.02
D24V	3.21
D24H	4.04
D24N	4.32
W8L	4.94
W8Q	5.58
W8S	5.41
P19I	4.92
P19T	4.49
P19W	4.33
P19C	4.61
P19H	4.3
R16S	5.12
R16F	3.7
R16Q	5.08
R16A	4.54
R16V	3.62
R16T	4.94
R16L	3.86
N22D	4.7
N22T	4.6

Variant	protein stability index
N22C	4.85
N22A	4.27
K10R	4.92
K10M	4.67
I2L	4.74
I2D	5.17
I2R	4.58
I2Q	4.14
I2A	4.88
I2S	5.09
I9P	4.94
I9M	4.75
I9A	5.24
I9E	5.25
I9N	5.07
I9H	4.45
I9F	3.96
I9K	5.13
I9L	4.66
Y13P	4.51
Y13Q	5.04
Y13D	5.04

Variant	protein stability index
Y13G	4.99
Y13N	5.41
E23Y	3.77
E23M	4.17
E23D	5.01
E23A	4.52
E23V	4.18
H17G	4.97
H17F	4.41
H17C	4.16
H17T	4.57
H17K	4.23
H17S	4.83
N18G	4.93
N18H	4.27
E7D	4.48
E7A	4.74
E7L	2.68
E7W	3.46
E7V	3.99
K1Y	2.98
K1V	4.52

Variant	protein stability index
K1H	4.62
K1S	4.62
K1R	4.68
K1G	5.15
K1L	4.15
K1F	2.67
T21V	4.46
T21E	4.6
E6V	3.63
E6Q	4.47
E6W	2.61
E6G	3.96
K5E	4.45
K5Y	3.92
K5S	4.14
K5P	4.63
K5I	2.39
K5A	3.99
K5Q	4.93
H14I	4.58
H14W	3.73
H14G	4.88

Variant	protein stability index
H14V	4.24
H14R	4.58
R3S	4.6
R3N	4.72
R3C	4.8
R15N	4.39
R15Y	4.08
R15L	4.49
R15G	4.83
K20G	4.84
K20S	4.81
K20N	4.21
K20M	4.53
K20E	5.2
L11H	4.66
L11F	4.33
L11S	5.23
D12P	4.41
D12N	3.92
D12I	3.28
D12K	4.54

Variants of: B2
Assay: as above
Conditions: c terminus: a fixed tail appended

Variant	protein stability index
L7T	1.67
L7D	2.31
L7G	2.36
L7R	1.65
L7Q	1.75
L7I	1.79
L7K	1.95
L7Y	1.86
L7H	1.55
L7F	1.68
L7V	2.01
L7W	2.57
L7N	2.26
L7S	2.29
L7C	2.13
L7M	2.39
L7A	1.75
L7E	2.27
L7P	2.21
N6Q	2.25
N6C	1.76
N6L	2.27
N6K	1.76
N6S	2.37
N6E	1.7

Variant	protein stability index
N6F	2.2
N6M	1.46
N6P	1.7
N6R	2.09
N6Y	1.48
N6G	1.91
N6I	2.59
N6T	1.72
N6A	1.77
N6V	1.88
N6D	1.47
N6W	1.9
N6H	1.97
N3K	1.9
N3I	2.71
N3R	1.76
N3S	2.59
N3G	1.76
N3V	1.7
N3P	1.92
N3F	1.83
N3A	2.14
N3Y	1.76
N3L	1.91
N3E	1.37

Variant	protein stability index
N3M	1.08
N3T	3.29
N3H	1.99
N3D	1.92
N3W	1.68
N3C	1.61
N3Q	2.7
A11I	1.82
A11C	1.59
A11T	2.8
A11V	1.57
A11P	1.71
A11Q	1.34
A11L	1.98
A11H	1.66
A11N	1.56
A11M	2.25
A11E	2.19
A11Y	1.69
A11R	1.19
A11K	1.78
A11S	2.06
A11D	2.08
E10C	1.71
E10T	1.71

Variant	protein stability index
E10F	2.7
E10R	1.7
E10A	1.52
E10Q	2.23
E10S	1.9
E10L	1.65
E10G	1.68
E10P	1.37
E10D	1.63
E10N	1.94
E10I	1.35
E10M	2.14
E10H	2.56
E10K	2.09
K13D	1.58
K13H	2.74
K13F	2.35
K13C	1.17
K13A	1.54
K13G	2.04
K13I	2.01
K13E	1.29
I5E	2.53
I5Y	2.21
I5G	1.83

Variant	protein stability index
I5W	1.4
I5T	1.71
I5A	1.79
I5R	1.88
I5K	1.45
I5L	2.16
I5V	1.61
I5D	2.05
I5S	1.89
I5H	1.8
I5M	1.8
I5N	2.33
I5P	2.04
I5C	1.64
I5Q	1.97
R2Q	1.53
R2M	1.89
R2W	1.98
R2S	1.86
R2C	1.66
R2I	1.45
R2N	2.22
R2P	2.25
R2V	1.41
R2E	2.23

Variant	protein stability index
R2D	2.3
R2L	1.93
R2K	1.92
R2F	1.89
R2T	1.93
R2H	2.56
R2Y	1.64
R2G	1.28
R2A	1.95
N9V	1.53
N9I	2.01
N9T	1.33
N9A	1.84
N9K	1.98
N9Q	1.49
N9R	2.42
N9G	2.15
N9E	1.42
N9D	2.28
N9P	2.33
N9S	1.95
N9M	1.39
N9L	2.12
N9C	1.57
N9H	1.53

Variant	protein stability index
N9W	2.72
N9Y	2.32
C1V	2.78
C1A	2.36
C1E	1.87
C1F	1.5
C1M	1.91
C1Y	1.86
C1Q	2.01
C1L	1.72
C1D	2.28
C1K	1.9
C1H	2.23
C1R	1.94
C1S	1.9
C1W	2.08
C1G	2.13
C1N	2.33
C1T	2.66
C1P	2.19
C1I	1.41
Q12F	2.23
Q12C	1.81
Q12E	2.29
Q12T	1.71

Variant	protein stability index
Q12Y	2.28
Q12I	2.58
Q12W	2.31
Q12D	1.87
Q12A	2.34
Q12H	1.75
Q12K	2.06
Q12S	1.31
Q12G	1.75
Q12N	1.69
Q12R	1.96
Q12P	2.83
Q12V	2.12
Q12M	1.5
Q8I	1.72
Q8P	1.68
Q8A	1.63
Q8T	1.61
Q8W	2.46
Q8S	2.82
Q8F	1.59
Q8N	1.87
Q8G	1.57
Q8D	1.13
Q8R	2.17

Variant	protein stability index
Q8V	2.12
Q8H	2.08
Q8K	1.38
Q8L	3.13
Q8C	2.9
Q8E	2.53
C4F	2.15
C4D	1.98
C4Y	2.51
C4M	2.12
C4K	2.15
C4P	2
C4N	1.93
C4S	1.51
C4A	2.02
C4W	1.41
C4L	1.53
C4I	2.28
C4G	1.85
C4V	1.92
C4Q	2.13
C4E	1.41
C4H	1.74
C4R	3.13
C4T	1.69
